Test results reported in patent US20190309034A1 (Boehringer Ingelheim, published 2019).

Experiments:
[1] = target: T1, Recombinant soluble 60-mer human BAFF (His-HuBAFF 134-285) (human, UniProt Q9Y275 134-285); experiment: cell-based or functional assay
[2] = target: T2, Recombinant soluble trimeric human BAFF (furin-cleaved human BAFF 134-285) (human, UniProt Q9Y275 134-285); experiment: cell-based or functional assay
[3] = target: Human membrane-bound BAFF (mbBAFF) (human, UniProt Q9Y275 1-285); experiment: cell-based or functional assay
[4] = target: T1, Recombinant soluble 60-mer human BAFF …; experiment: cell-based or functional assay; remark: listed apart in the source
[5] = target: T2, Recombinant soluble trimeric human BAFF …; experiment: cell-based or functional assay; remark: listed apart in the source
[6] = target: T2, Recombinant soluble trimeric human BAFF …; experiment: SPR, antibody captured on Protein A/G, soluble trimeric BAFF flowed over, 1:1 Langmuir global fit, apparent affinity (at detection limit)
Procedure: Apparent binding affinities were evaluated using surface plasmon resonance where the antibodies were captured at different surface densities on a Protein A/G surface. Soluble trimeric BAFF at different concentrations were flowed over the captured antibody. Clinical reference antibodies (Reference 1 comprising SEQ ID NOS: 98 and 116) and Reference 2 comprising SEQ ID NOS: 99 and 117) were used as comparators.

Row | Binder | Soluble 60-mer huBAFF (4 pM) Neutralization IC50 [1] | Soluble 60-mer huBAFF (4 pM) Neutralization IC90 [1] | Soluble trimeric huBAFF (50 pM) Neutralization IC50 [2] | Soluble trimeric huBAFF (50 pM) Neutralization IC90 [2] | Potent mbBAFF Neutralization IC50 [3] | Potent mbBAFF Neutralization IC90 [3] | Soluble 60-mer huBAFF (4.2 pM) Neutralization IC90 [4] | Soluble trimeric huBAFF (52 pM) Neutralization IC90 [5] | Kd [6]
1 | 332C1B12 (antibody, V domains shown) VH: QVQLQQPGAELVKPGASVKLSCKASGYTFTNDNYWMNWMKQRPGRGLEWIGRIRPSDSETHYNQKFTNKATLTVDKSSSTAYIQLSSLTSVDSAVYYCARSWEDLLLRSMEDYFDYWGQGTTLTVSS VL: DIVLTQSPASLPVSLGQRATISCRASKGVSTSSYTFIHWYQQKPGQPPKLLIKYASNLESGVPARFSGSGSGTDFTLNIHPVEEEDVATYYCQHSREFPRTFGGGTKLEIK | 12 pM | 40 pM | 99 pM | 457 pM |  |  |  |  | 
2 | 363D4A10 (antibody, V domains shown) VH: QVTLKESGPGILQSSQTLSLTCSFSGFSLKTFGMGVGWIRQPSGKGLEWLAHIWWNDDKFYHPALKSRLTISKDTSKNQVFLKIANVDTAETATYYCVRIGPSITTVAEGFAYWGQGTLVTVSA VL: DIVMTQSQKFMSTTVGDRVTITCKASQNVGSAVVWYQQKPGQSPILLIFSASNRYTGVPDRITGSGSGAEFTLTISSVQSEDLAEYFCQQYSSYPLTFGAGTKLELK | 9 pM | 23 pM | 21 pM | 473 pM |  |  |  |  | 
3 | 1094C4E6 (antibody, V domains shown) VH: EVQLQQSGAELVRPGASVKLSCTASGFNIKDDYMHWVKQTPEQGLEWIGRIDPAYGNGKYVPKFQDKATITADTSSNTAYLQLSSLTSEDTAVYYCARRYYAVSSVDYALDYWGQGTSVTVSS VL: DIVMTQSHKFMSTSVGDRVTITCKASQDVATAVAWYQQKPGQSPKLLIYWASTRHTGVPDRFTGSGSGTDFTLTISNVQSEDLANYFCQQYSNYPYTFGGGTTLEIK | 4050 pM | 20900 pM | 384 pM | 1100 pM | 2.56 nM | 175 nM |  |  | 
4 | 1002E8A6 (antibody, V domains shown) VH: EVQLQQSGPELVKPGASVKMSCKASGYTITSYVMHWVKQKPGQGLEWIGYINPNNDGTKYNEKFKGKATLTSDKSSNTAYMELSSLTSEDSAVYYCARGDYSNYFYWYFDVWGAGTTVTVSS VL: DIKMTQSPSSMYASLGERVTITCKASQDINSYLTWFQQKPGKSPETLIYRANRLVSGVPSRFSGSGSGQDYSLTISSLEYEDMGIYSCLQYDEFPYTFGGGTKLEIK | 29 pM | 79 pM | 107 pM | 824 pM | 0.141 nM | 2.09 nM |  |  | 
5 | 323E9D1 (antibody, V domains shown) VH: QVTLKESGPGILQPSQTLSLTCSFSGFSMRTFGMGVGWIRQPSGKGLEWLAHIWWNDEKYYNPDLKSRLTVSKDSSKNQVFLTIANVDTSDTAPYYCTRVGPSISTIAEGFPYWGQGTLVTVSA VL: DIVMTQSQKFVSTRVGDRVSITCKASQNVGAAVVWYQQKSGQPPKLLIRSASNRYIGVPDRFTGSGSGTDFTLTVSDVQSGDLADYFCQQYSNYPLTFGAGTKLELT | 6 pM | 23 pM | 148 pM | 312 pM |  |  |  |  | 
6 | 348A6C1 (antibody, V domains shown) VH: QVTLRESGPGILQPSQTLSLTCSFSGFSLRTFGMGVGWIRQPSGKGLEWLAHIWWNDEKYYNPALKSRLTVSKDSSENQVFLKIANVDTTDTAPYYCARLGPSITTVAEGFPYWGQGTLVTVSA VL: DIVMTQSQKFMSTTVGDRVSITCKASQNVGAAVAWYQQKPGQPPKLLIRSASNRYIGVPDRFTGSGSGTDFTLTVSDVQSVDLADYFCQQYSNYPLTFGAGTKLELTR | 9 pM | 29 pM | 110 pM | 329 pM |  |  |  |  | 
7 | 352G11A10 (antibody, V domains shown) VH: QVQLQQSGPELVKPGGSVRISCKASGYSLISYYIHWVKQRPGQGLEWIGLTFPGSGNSKFIEKFKGKATLTADTSSNTAYIQLSSLTSEDSAVYYCTRGDFGNYLAYWYFDVWGTGTTVTVSS VL: DIKMTQSPSSIYASLGERVTITCKASQDIHSYLSWFQQKPGKSPKTLMYRTNRLVDGVPSRFSGSGSGQDYSLTIRSLEYEDMGNYYCLQYDEFPYTFGGGAKLEVK | 21 pM | 90 pM | 99 pM | 444 pM |  |  |  |  | 
8 | 1070A6B7 (antibody, V domains shown) VH: QVPLQQPGAEMVRPGASMRLSCKASGYTFPGYWMHWVKQRPRQGLEWIAKIDPSDSETHYNQNFKDKATLTVDKYSNTVYMQLNSLTSEDSAVYYCANEGWDSLTKVWFGWWGQGTLVTVSA VL: DVVMTQTPLSLPVSLGDQASISCRCSQSLVHSNGNTYLHWYLQKPGQSPKLLIYKVSDRFSGVPDRFSGSGSGTDFTLRISRVEADDLGVYFCSQSTHVPLTFGAGTKLELK | 20 pM | 56 pM | 43 pM | 677 pM | 0.147 nM | 1.06 nM |  |  | 
9 | 206G9A10 (antibody, V domains shown, Mouse lead antibody (hybridoma)) VH: QVQLQQPGAELVKPGASVKLSCKASGYTFSIFCIHWVQQRPGRGLEWIGRIDPSSGGTKYNEKFESKATLTVDKSSSTAYMQLSSLTSEDSAVYYCARGEDLLVRTDAMDYWGQGTSVTVSS VL: DIVMTQSQKFMSTTVGDRVSITCKASQNAGAAVAWFQQKPGQSPKLLIYSASNRYTGVPDRFTGSGSGTDFTLTISNVQSEDLADYICQQYRSYPRTFGGGTKLEIK |  |  |  |  |  |  | 0.2 pM | 35.1 pM | < 0.01 nM
10 | 227D3B11 (antibody, V domains shown, Mouse lead antibody (hybridoma)) VH: QVQLQQPGAELVKPGASVKLSCKASGYSFSTFFIHWIQQRPGRGLEWIGRIDPNSGGTKYNEKFESKATLTVDKPSSTAYMHLSSLTSEDSAVYYCARGEDLLIRTDAMDYWGQGTSVTVSS VL: DIVMTQSQKIMSTTVGDRVSITCKASQNAGIDVAWFQQKPRQSPKLLIFSTSNRYTGVPDRFAGSGSGTDFTLTIYNVQSEDLADYFCLQYRSYPRTFGGGTKLEIK |  |  |  |  |  |  | 1.6 pM | 128 pM | < 0.01 nM
11 | 217H12A7 (antibody, V domains shown, Mouse lead antibody (hybridoma)) VH: QVQLQQPGAELVKPGASVKLSCKASGYTFSTFLIHWVQQRPGRGLEWIGRIDPNSGGTKYNEKFERKVTLTVDKPSSTAYMQLSSLTSEDSAVYYCARGEDLLLRTDAMDYWGQGTSVTVSS VL: DIVMTQSQKFMSTTVGDRVSITCKASQNAGTAVAWFQQKPGQSPKLLIYSAFNRYTGVPDRFTGSGSGTDFTLTISNMQSEDLADYICQQYRSYPRTFGGGTKLEIK |  |  |  |  |  |  | 13.4 pM | 129 pM | < 0.01 nM
12 | 214G4B7 (antibody, V domains shown, Mouse lead antibody (hybridoma)) VH: QVQLQQPGAEFVKPGASVKLSCKASGYSFSTFCIHWVQQRPGRGLEWIGRIDPNSGGTKYNEKFESKATLTIDKPSSTAYVHLSSLTSEDSAVYYCARGEDLLIRTDAMDYWGQGTSVTVSS VL: DIVMTQSQKFMSTTVGDRVSITCKASQNAGTAVAWFQQKPGQSPKLLIFSTSNRYTGVPDRFTGSGSGTDFTLTISNMQSEDLADYFCLQYRSYPRTFGGGTKLEIK |  |  |  |  |  |  | 3 pM | 296 pM | < 0.01 nM
13 | 250E5A11 (antibody, V domains shown, Mouse lead antibody (hybridoma)) VH: QVQLQQPGTELVKPGASVKLSCKASGYTFSIFCIHWVQQRPGRGLEWIGRIDPSSGGTKYNERFENKATLTVDKSSSTAYMQLSSLTFEDSAVYYCARGEDLLVRTDAMDYWGQGTSVTVSS VL: DIVMTQSQKFMSTTVGDRVSITCKASQNAGAAVAWFQQKPGQSPKLLIYSASNRYTGVPDRFTGSGSGTDFTLTITNVQSEDLADYICQQYRSFPRTFGGGTKLEIK |  |  |  |  |  |  | 0.3 pM | 97.5 pM | < 0.01 nM
14 | 227D5A7 (antibody, V domains shown, Mouse lead antibody (hybridoma)) VH: QVQLQQPGAELVKPGASVKLSCKASGYTFSIFCVHWVQQRPGRGLEWIGRIDPSSGGTKYNEKFESKATLTVDKSSSTAYMQLSSLTPEDSAVYYCARGEDLLVRTDALDYWGQGSSVTVSS VL: DIVMTQSQKFMSTTVGDRVSITCKASQNAGAAVAWFQQKPGQSPKLLIYSASNRYTGVPDRFTGSGSGTDFTLTISNVQSEDLADYICQQYRSFPRTFGGGTKLEIK |  |  |  |  |  |  | 0.8 pM | 56.8 pM | < 0.01 nM
15 | 344B9D9 (antibody, V domains shown) VH: EFQLQQSGPELGEPGASVKISCKASGFSFSDYNINWVKQSNGKSLEWIGKVHPKDGTATYNQKFQDKATLTLDQSSSTAYMQLSSLTSEDSAVYYCLPLYYDSLTKILFAYWGQGTLVTVSA VL: DIQMTQSPASLSASVGETVTITCRASGNIHNYLAWYQQKQGKSPQLLVYSAITLADGVPSRFSGSGSETQFSLKINSLQPEDFGIYYCQHFWNTPYTFGGGTKLEIK | 11 pM | 32 pM | 102 pM | 352 pM |  |  |  |  | 
